Experimental data reported in patent US20160038588A1 (Amgen, published 2016).
Where no end group is shown, it is not given here.

T1: recombinant mature myostatin (human, produced in E. coli) (human, UniProt O14793 267-375)
T1 sequence (looked up): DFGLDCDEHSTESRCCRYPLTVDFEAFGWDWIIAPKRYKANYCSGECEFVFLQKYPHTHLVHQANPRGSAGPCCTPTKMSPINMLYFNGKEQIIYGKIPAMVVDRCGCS


What was measured:
[1] = target: T1, recombinant mature myostatin (human, …); experiment: cell-based or functional assay
[2] = target: T1, recombinant mature myostatin (human, …); experiment: cell-based or functional assay; remark: listed apart in the source

Row | IC50 (read off the curve) [1] | IC50, C2C12 pMARE-luc assay [2] | Binder
1 | ~20 µM | – | QGHCTRWPWMCPPY (also: cysteine-constrained, bridge type not given here) [TN8-19 peptide]
2 | – | ~83 nM | recombinant human activin receptor IIB/Fc chimera (R&D Systems) (Fc fusion, UniProt Q13705 19-134, looked up, not shown: a dimerising Fc or GST) SGRGEAETRECIYYNANWELERTNQSGLERCEGEQDKRLHCYASWRNSSGTIELVKKGCWLDDFNCYDRQECVATEENPQVYFCCCEGNFCNERFTHLPEAGGPEVTYEPPPTAPT
